The text below walks through data of the DeepSol protein solubility set.

A short description of the data set: soluble on expression in E. coli; label from the status in PepcDB or PDB records.
Consider “MITSDSHMHTRFSTDSDADIRDMIESALKKGLQSICITDHIDKDYPFHEDTGAEAFLVDLDEYFPKLAEWKEAYAEKIQIRRGIELGLQPHLAGFYEELTNQYPFDFVIGSVHVVHGMDPYYGEIFEGRSDEEVYKETFLATLENLDAVSSFDVLGHLDYVVRYGKCQARQYSYKKYAQEIDEILKKVIAMGKGIELNTAGWKYGLAFCHPHPEILCRYKELGGEIITVGSDAHKPEHVAYDFQKAADVLKACGFKYYTEFQDRKPIFKQLL”, for which the “soluble on expression in E. coli” value was “soluble”.
Regarding “MITTGKVWKFGDDISTDEITPGRYNLTKDPKELAKIAFIEVRPDFARNVRPGDVVVAGKNFGIGSSRESAALALKALGIAGVIAESFGRIFYRNAINIGIPLLLGKTEGLKDGDLVTVNWETGEVRKGDEILMFEPLEDFLLEIVREGGILEYIRRRGDLCIR”, the “soluble on expression in E. coli” value was “soluble”.
Regarding “MITTRTAKQCGQADYGWLQARYTFSFGHYFDPTLLGYASLRVLNQEVLAPGASFQPRTYPKVDILNLILDGEAEYRDSDGNHVQAKAGEALLLAAQPGISYSEHNISKVKPLTRMQLWLDACPERENTLVQKIPLLAAQQQLLASPDGEQNSLQLRQQVWVHHITLEKGESLNFQLHGPRAYLQSIHGTFHAMTHNEEREALTCGDGAFIRDEPNITLVADTPLRALLVDLPV”, the “soluble on expression in E. coli” value is given as “not soluble”.
The value for “MIVEPMTKPRKPTVQRCQSFFTNGANHFYCKKSTHDGGRTHNLLIRSQTRCHYATRATVCWKFSIINKYIPTLANITITTLRKLYKRFIDRESLFLIFFRKDEHIVQNIIN” was “soluble”; that for “MIVGAGPAGIRAAAALADAGLHPVVIDEGNRAGGQIYRRPPDGFVRTPGQLYGSEAAKARALHAVFDRLTADGRLTHCAGSSVIAVQTGRLHVLGEGGVQVIFYDRLILATGASDRVAPVPGWQSAGVYSLGAAQIALKAQGVALGRRIVLMGSGPLLTLVGAQLIKAGADVAAVLDTSPWRQQMRGLWKLAARPLVALRGLALRARLGGRYHAGVSLEKIEADGQGVTAMRWRDAGGRQRLTPCDTIGMGWHLRAETHLADLAGCAFTYDEQWRQWLPKTDRMGRAGNGVYLAGDGVRLLGADGAEIAGRLAAAACLADLGFPAPTNAADLRELTRLERFAHGLVCAFPWPAAMVRALPDAAIVCRCENVTAGAVRDSVDLGGGEANRVKSLSRLGMGRCQGRYCHLAAVELAAAQSGCTPDAVGRFRGQAPARPAPIGAFLPEGLEHHHHHH” was “not soluble”; that for “MIVGMSVSLLRGRTVRRVLSVLVVAGLLGAGVTGCSNDAGAKTENTVDASPTPTNTPTDGDGDSAEEPAQDTPAEPEQRPVPEEPEAMKTGDKAGAIAAATFFVEVIEYSLHSNNPELLEKYSYENCTNCNNLIETIAYRSKNGYESLETSYVINSVGTPSYVGTNHIIWGVPMSITSKEQLNRKESEQIETNKLTIYVTYENGEWDLTSIDPDGGQSTK” was “not soluble”.
For “MIVNKPQFDENELGEGTAVQVTSGNPFGRPNYSNNKHDWNAVVVEFSPLMISVAGYNKEEHDRVETMNITIDSIVKEHVTLKKLVVELPKIQCEAGPEND” the value was “not soluble”.
For “MIVSAIAANALLESVTKFHCGVIYDYSTAEYVSYRPSDFGAYLDALEAEVARGGLIVFHNGHKYDVPALTKLAKLQLNREFHLPRENCIDTLVLSRLIHSNLKDTDMGLLRSGKLPGKRFGSHALEAWGYRLGEMKGEYKDDFKRMLEEQGEEYVDGMEWWNFNEEMMDYNVQDVVVTKALLEKLLSDKHYFPPEIDFTDVGYTTFWSESLEAVDIEHRAAWLLAKQERNGFPFDTKAIEELYVELAARRSELLRKLTETFGSWYQPKGGTEMFCHPRTGKPLPKYPRIKTPKVGGIFKKPKNKAQREGREPCELDTREYVAGAPYTPVEHVVFNPSSRDHIQKKLQEAGWVPTKYTDKGAPVVDDEVLEGVRVDDPEKQAAIDLIKEYLMIQKRIGQSAEGDKAWLRYVAEDGKIHGSVNPNGAVTGRATHAFPNLAQIPGVRSPYGEQCRAAFGAEHHLDGITGKPWVQAGIDASGLELRCLAHFMARFDNGEYAHEILNGDIHTKNQIAAELPTRDNAKTFIYGFLYGAGDEKIGQIVGAGKERGKELKKKFLENTPAIAALRESIQQTLVESSQWVAGEQQVKWKRRWIKGLDGRKVHVRSPHAALNTLLQSAGALICKLWIIKTEEMLVEKGLKHGWDGDFAYMAWVHDEIQVGCRTEEIAQVVIETAQEAMRWVGDHWNFRCLLDTEGKMGPNWAICH”, the “soluble on expression in E. coli” value is given as “soluble”.
For “MIVVFDAQCLLCSGFARFLLKHDRRGVLRFASMQGETGRALLRAADVDPEDVDTVLFVRDGRAWRESAAALRILHALGWPWRLAWLGWAVPLPIRDALYRCVARNRYRWFGCSDTCILPPPGAAQRFLDLEHHHHHH” the value was “not soluble”.
For “MIWIINISWMHSIFDFISMLINRNHFSKWSISNGRHVSFCNWVFTYTNICSKSFNYRRRSCFKNISISYPFCRIHSIFNKFFTYFIISNCSCPTHRLFCIWRSLFTRSLEHHHHHH” the value was “not soluble”; for “MIYIVGIGPGSRDYVTEKAFDTVETSDFVLGSKRSLEIFEINGERVELTVNLKNELYEFLKNYKNSDSKKKVSILSTGDPCFSGLLKTIFSFDFIEQDDFEVVPGI”, “not soluble”.
For the sequence “MIYSRSKLPSEGEILIATVKQVFDYGSYVSLDEYGGLQAFLPWSEVSSKWVKNIRDVLKENRKVIVKVIRVDRRKGTVDVSLKKVTDDERRKKNLQWKKIQRLDKILELVSQKLKLSEKDAWEQVAWKLEAKYGDPITAIEKAVKEGEKILIDAGVPEIWVKPLLEEASKHAEERKVKMSGLITVRTNEPLGVEKIKEVISKALENIEQDYESLLNIKIYTIGAPRYRVDVVGTNPKEASEALNQIISNLIKIGKEENVDISVVKK”, the “soluble on expression in E. coli” value is listed as “soluble”.
The value for “MKAETTTGVEELLNELVGRAAGEVGLILFSLGIEGEFTDDQLSLELGIEINEIRKALFALYEIGLADYVRRRDDETGWMEYYWRINYDKALDVLKRELEKTAKKLREKIEAETSTIYYICPNMCVKVSYNDAMELNFTCPRCGAMLDYLDCSKAIEKIEEEVRRIEEILESLDKNSG” was “not soluble”; that for “MKALITAADIKKASETPEKILTISEADLITPAARDAAKELGVQITAHPVSLPPTVAPSPAFSPASPLDPALVSRIIEEVMVCLNRSGSPAQPQKEADPGGLRIVKGNSLILEDFATGNPRDQIKIKELFNKKECPLYSAGIMALDKTSYSLTPARDELNYIIEGTLECCIDNRCYTAQAGDTLYIPAQAKIILTAADKVKLFYVC” was “not soluble”; that for “MKALSKLKAEEGIWMTDVPVPELGHNDLLIKIRKTAICGTDVHIYNWDEWSQKTIPVPMVVGHEYVGEVVGIGQEVKGFKIGDRVSGEGHITCGHCRNCRGGRTHLCRNTIGVGVNRPGCFAEYLVIPAFNAFKIPDNISDDLAAIFDPFGNAVHTALSFDLVGEDVLVSGAGPIGIMAAAVAKHVGARNVVITDVNEYRLELARKMGITRAVNVAKENLNDVMAELGMTEGFDVGLEMSGAPPAFRTMLDTMNHGGRIAMLGIPPSDMSIDWTKVIFKGLFIKGIYGREMFETWYKMAALIQSGLDLSPIITHRFSIDDFQKGFDAMRSGQSGKVILSWD” was “soluble”.
For “MKAPLVSIIIPVWNLWELTCACLDSIRAHTPGNAVEVIVVDNGSDDTTATALAPTGEGLFGARFRRIRLETNRGFAVACNLGAAKAQGTYLLLLNNDTVLSPGWLPPLLREFDDEPRTGAAGPLLVYPDSGRVQHCGIAFAPTLQTEHLYANFPATHPAVRARRTLQAITGAAMLLPTALFRQCGGFHEGYKNGCEDLELCCRIREQGLRLAVVPESLVAHHESRTPGRKEHDAANATLLNRRCSGCFGPDLHRHALRDGFAIALTPWLDTYLTLPPGREAALTREHITDFDPGRCWETLQGEPLWHGGYEMLCSILDEAGRHAESAGVRLLQAGFFPTLPGFRQLARSAALSGNDELARQAAEKMQHIGGILEDPEPLVTRARGLVRWARRAGEPAVEALYTGWLTDIGLSADDLEHHHHHH” the value was “soluble”; for “MKAVGFLLLLTILTLAYAKKSGDVTELQIGVKYKPQKCDLQAHKGDKIKVHYRGKLTDGTVFDSSFERGDPIEFELGTGQVIPGWDQGLLGACVGEKRKLKIPSKLGYGDNGSPPKIPGGATLIFDTELVAVNGEPSSEAKSKNEL”, “soluble”; for “MKAVTTSPSDPPDPFDPLDPVDPLASTKPEVDVVLPCLDEADALPWVLARIPPGWRALVVDNGSTDGSAEIARRLGATVVPETRRGFGAACHAGLTAATADIVCFCDCDGSLDPSLLVPFVREVRDGAADLVLGRRRPHGRGAWPAHARAGNLALARMLRRRTGLRLHDLGPLRAARREPLLALGLTDRRSGYPLQMVVRAADAGWRIAEHDVPYLPRTGVSKVTGTWRGTWQAVRDMSRVLAEPAQDGPPESGSLSSSQGGSSQLEHHHHHH”, “not soluble”.
The value for “MKCSNEKVVNQEQSYESMDKFLDGVQEVAYIHSNQNVIGSSKAENHMSRWAAHDVFELKQFSQLPANIAVCSSKTYKEKVDADTLPHTKKGQQPSEGSISLPLYISNPVNQKKKKVYHTNQTTFIIGETPKGIRRKQFEEMASYFNSSSVNEFAKHITNATSEERQKMLRDFYASQYPEVKEFFVDSVSQFNNSSFEKGEQRTRKKSDKRESLIKPRLSDSETLSFKDSTNKISQVCSLKTYKRKSVKFQNHISYREEVFFNDAETKKSPVSSTQEIDSGKNSQASEDTVTSRSLNSESETRERRLENTMKDQQDLTRTGISRKEPLLKLENKKIENPVLENTSVISLLGDTSILDDLFKSHGNSPTQLPKKVLSGPMEKAKQRPKDFWDILNEQNDESLSKLTDLAVIETLCEKAPLAAPFKRREEPATSLWKSNEKFLWKKFSPSDTDENATNTQSTT” was “not soluble”; that for “MKDKVYKRPVSILVVIYAQDTKRVLMLQRRDDPDFWQSVTGSVEEGETAPQAAMREVKEEVTIDVVAEQLTLIDCQRTVEFEIFSHLRHRYAPGVTRNTESWFCLALPHERQIVFTEHLAYKWLDAPAAAALTKSWSNRQAIEQFVINAA” was “soluble”.
Take “MKDLLQAQQKLIPDLIDKMYKRFSILTTISKNQPVGRRSLSEHMDMTERVLRSETDMLKKQDLIKVKPTGMEITAEGEQLISQLKGYFDIYADDNRLSEGIKNKFQIKEVHVVPGDADNSQSVKTELGRQAGQLLEGILQEDAIVAVTGGSTMACVSEAIHLLPYNVFFVPARGGLGENVVFQANTIAASMAQQAGGYYTTMYVPDNVSETTYNTLLLEPSVINTLDKIKQANVILHGIGDALKMAHRRQSPEKVIEQLQHHQAVGEAFGYYFDTQGQIVHKVKTIGLQLEDLESKDFIFAVAGGKSKGEAIKAYLTIAPKNTVLITDEAAAKIILE”: the “soluble on expression in E. coli” value is listed as “not soluble”.
For “MKDNNEVLKLFIVSDSIGETAQRMIHATLTQFPDLTQVEIKKFPYIKDEQEFLNVLQLAKEQNAIVATTLVSESFNALGHQFANEHQIPYVDYMSELISIIKQHTHAKPLMESGALRKLNDEYFKRIEAIEYSVKYDDGKHFTDIGEADALIVGVSRTSKTPLSMYLANKGYKIANIPLVPEVAIPDNVFQQKNLKVFGLTASPNYIANIRRNRAETLGLSSESNYNSLERIKKELSYAEEVFRKLNATVINTEYKSIEESAFYIEKFLAKRLEHHHHHH” the value was “not soluble”.
